RU Post Association data for 8 substances are collected here from US20220280636A1.

Experiment [1] addresses guinea pig whole molecule IgG (guinea pig). The experiment in a line: SPR; IgG amine coupled to CM5 chip, construct flowed at 750 ug/ml; end-point RU of association phase. (In general: In SPR one partner is held on a chip, and binding of the other changes the refractive index at the surface.)
The target in experiment [2] is human IgG Fc (human). The experiment is described as above.
Experiment [3] addresses human whole molecule IgG (human). The experiment is described as above.
The target in experiment [4] is mouse whole molecule IgG (mouse). The experiment is described as above.
Experiment [5] has as its target rabbit whole molecule IgG (rabbit). The experiment is described as above.
For experiment [6], the target named is human IgG Fc (human). Briefly: SPR; IgG amine-coupled to CM5 chip, construct flowed at 750 ug/ml; end-point RU of association phase.
The target of experiment [7] is human whole molecule IgG (human). Described as above.
For experiment [8], the target named is rabbit whole molecule IgG (rabbit). The experiment is described as above.
The target in experiment [9] is human IgG Fc (human). The description is as above. This is another data set of the same source.
In experiment [10] the target is human whole molecule IgG (human). The experiment is described as above. The source holds these as a separate data set.
Experiment [11] deals with rabbit whole molecule IgG (rabbit). The experiment is described as above. This is another data set of the same source.

For the substance gD-2t 339 (from UniProt Q69467 26-339), the RU Post Association in experiment [1] amounted to 2 RU; with human IgG Fc (human) [2] it was 4 RU; in experiment [3] it was 2 RU; in experiment [4], 4 RU; in experiment [5], 11 RU; with human IgG Fc (human) [6], 2 RU. Besides, the RU Post Association turned out to be 4 RU in [7]; 1 RU in [8]; 1 RU with human IgG Fc (human) [9]; 3 RU in [10]; 2 RU in experiment [11].
As to “gE-1t 419/gI-1t 269 (from UniProt P04488 21-419; P06487 21-276)”, the RU Post Association worked out at 19 RU in [1]; 216 RU in the experiment with human IgG Fc (human) [2]; 232 RU in experiment [3]; 11 RU in experiment [4]; 195 RU in experiment [5].
With “gE-2t 24-405 (from UniProt P89475 23-402)”, the RU Post Association was found to be 5 RU in [1]; 8 RU in the experiment with human IgG Fc (human) [2]; 7 RU in experiment [3]; 4 RU in [4]; 6 RU in [5].
For “gE-2t 24-405/gI-2t 262 (from UniProt P89475 23-402; P06764 21-262)” the same measures were 8 RU, 95 RU, 136 RU, 6 RU and 142 RU.
For gE-2t 405 (from UniProt P89475 21-402), in that order: 5 RU, 5 RU, 8 RU, 4 RU and 6 RU.
For “gE-2t 405/gI-2t 262 (from UniProt P89475 21-402; P06764 21-262)”, in that order: 9 RU, 100 RU, 142 RU, 8 RU and 165 RU.
As to “gE-2t 414/gI-2t 262 (from UniProt P89475 21-411; P06764 21-262)”, the RU Post Association in experiment [1] turned out to be 4 RU; in the experiment with human IgG Fc (human) [2], 53 RU; in [3] it was 79 RU; in experiment [4] it was 5 RU; in experiment [5], 75 RU.
Consider “gE-2t 417/gI-2t 262 (from UniProt P89475 21-414; P06764 21-262)”, for which the RU Post Association in [1] amounted to 9 RU; with human IgG Fc (human) [2], 41 RU; in [3] it was 52 RU; in experiment [4], 10 RU; in experiment [5], 46 RU; with human IgG Fc (human) [6], 98 RU. Also, the RU Post Association was determined as 133 RU in experiment [7]; 138 RU in [8]; 43 RU with human IgG Fc (human) [9]; 53 RU in experiment [10]; 45 RU in experiment [11].
